Experimental data from patent US20110274702A1.

Legend:
Assay in all cases: ELISA on coated HA
[1] = target: H1N1 A/Brisbane/59/07 HA protein (influenza A virus H1N1 A/Brisbane/59/07)
[2] = target: H4N6 A/duck/Czechoslovakia/56 HA protein (influenza A virus H4N6 A/duck/Czechoslovakia/56) (UniProt P19696)
[3] = target: H5N1 A/Viet Nam/1203/04 HA protein (influenza A virus H5N1 A/Viet Nam/1203/04)
[4] = target: H7N7 A/Netherlands/219/03 HA protein (influenza A virus H7N7 A/Netherlands/219/03)
[5] = target: H6N5 A/shearwater/Australia/1/72 HA protein (influenza A virus H6N5 A/shearwater/Australia/1/72)
[6] = target: B/Ohio/1/05 HA protein (influenza B virus B/Ohio/1/05)
[7] = target: H10N4 A/mink/Sweded/3900/84 HA protein (influenza A virus H10N4 A/mink/Sweded/3900/84)
[8] = target: H3N2 A/New York/55/04 HA protein (influenza A virus H3N2 A/New York/55/04)
[9] = target: H3N2 A/Brisbane/10/07 HA protein (influenza A virus H3N2 A/Brisbane/10/07)
[10] = target: H7N3 A/Canada/444/04 HA protein (influenza A virus H7N3 A/Canada/444/04)
[11] = target: H5N1 A/Viet Nam/1/05 HA protein (influenza A virus H5N1 A/Viet Nam/1/05)
[12] = target: H3N2 A/Wyoming/3/03 HA protein (influenza A virus H3N2 A/Wyoming/3/03)
[13] = target: H9N2 A/Hong Kong/1073/99 HA protein (influenza A virus H9N2 A/Hong Kong/1073/99)
[14] = target: H8N4 A/Alberta/357/84 HA protein (influenza A virus H8N4 A/Alberta/357/84)

Measured: EC50

ctr (antibody)
> 20 mg/L: all assays above
